Test results: patent US20240344040A1, “PROKARYOTIC AND EUKARYOTIC CELLS WITH BIOSYNTHESIZED SULFOTYROSINE FOR GENETIC INCORPORATION” (William Marsh Rice University, priority 2023, published 2024)
Non-standard residues stand in square brackets, D forms with d. sY = N[C@@H](Cc1ccc(OS(=O)(=O)O)cc1)C(=O)O

Target: thrombin
Assay: chromogenic thrombin amidolytic activity assay; tight-binding model (Morrison equation)

Binder	Ki [nM]
chimadanin with a single biosynthesized sulfotyrosine at Tyr28 (sulfotyrosine at Tyr28 (counted without the initiator Met; residue 29 of SEQ ID NO: 107 as printed)) MQPKEKTKGVEVEGNPATLISARQMDVSYDEYEDNGPDVIPGEPAKPRGGPKNGAASGKFDQIPDFSSESHHHHHHH	0.6
chimadanin with a single biosynthesized sulfotyrosine at Tyr31 (sulfotyrosine at Tyr31 (counted without the initiator Met; residue 32 of SEQ ID NO: 107 as printed)) MQPKEKTKGVEVEGNPATLISARQMDVSYDEYEDNGPDVIPGEPAKPRGGPKNGAASGKFDQIPDFSSESHHHHHHH	1.5
wildtype chimadanin (peptide) MQPKEKTKGVEVEGNPATLISARQMDVSYDEYEDNGPDVIPGEPAKPRGGPKNGAASGKFDQIPDFSSESHHHHHHH	12.9
chimadanin doubly sulfated at both Tyr28 and Tyr31 (sulfotyrosine at Tyr28 and Tyr31 (counted without the initiator Met; residues 29 and 32 of SEQ ID NO: 107 as printed)) MQPKEKTKGVEVEGNPATLISARQMDVSYDEYEDNGPDVIPGEPAKPRGGPKNGAASGKFDQIPDFSSESHHHHHHH	0.1
madanin-1 sulfated at both Tyr32 and Tyr35 (peptide) MYPERDSAKEGNQEQERALHVKVQKRTDGDAD[sY]DE[sY]EEDGTTPTPDPTAPTAKPRLRGNKPHHHHHH	0.5
madanin-1 with a single sulfotyrosine at Tyr35 (peptide) MYPERDSAKEGNQEQERALHVKVQKRTDGDADYDE[sY]EEDGTTPTPDPTAPTAKPRLRGNKPHHHHHH	6.1
madanin-1 with a single sulfotyrosine at Tyr32 (peptide) MYPERDSAKEGNQEQERALHVKVQKRTDGDAD[sY]DEYEEDGTTPTPDPTAPTAKPRLRGNKPHHHHHH	1.3
wildtype madanin-1 (peptide) MYPERDSAKEGNQEQERALHVKVQKRTDGDADYDEYEEDGTTPTPDPTAPTAKPRLRGNKPHHHHHH	16
